In this data set the target is rGST (UniProt P08515 1-218). Description: EMSA; 1 and 3 μg rGST; Chemiluminescent EMSA Kit (Beyotime), buffer, salt and pH not stated; competitor 10 min then biotin probe 20 min at 25 °C; native 6% polyacrylamide gel. To be noted: protein: recombinant; chain copies: 2; blunt. (In general: Mobility shift assays separate free from complexed probe on a gel.)
rGST, sequence (P08515 whole entry): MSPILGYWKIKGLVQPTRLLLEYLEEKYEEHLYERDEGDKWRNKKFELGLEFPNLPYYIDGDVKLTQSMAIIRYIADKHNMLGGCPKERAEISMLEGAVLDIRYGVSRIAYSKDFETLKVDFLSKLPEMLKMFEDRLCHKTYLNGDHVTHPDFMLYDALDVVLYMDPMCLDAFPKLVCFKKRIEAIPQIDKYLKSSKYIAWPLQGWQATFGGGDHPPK

B1: HK-WT probe (dsDNA)
DNA 1: CAAATGACTAGAACGTGCGACATTAGTGAA
DNA 2: TTCACTAATGTCGCACGTTCTAGTCATTTG
For B1, the binding result is given as “no binding”.

Source of the values: publication PMC10070494, “WSSV exploits AMPK to activate mTORC2 signaling for proliferation by enhancing aerobic glycolysis”.
